Like-named read-outs stand apart in the source and are kept apart here.
Target: T1, murine extracellular domain of the Flt3 receptor fused to the transmembrane and intracellular domains of the human Fms (UniProt P07333+Q00342, A795S/A899S/C564L/C654D/C793H/C831G/D601N/D652H/D673E/D898N/DEL545-556/DEL576-597/DEL711-780/E609N/E612Q/E649S/E789R/E803A/E806A/E865D/F571P/F692T/F788L/F807S/G637D/G866C/H565Y/H671Q/H824N/I560L/I563L/I633L/I640L/I867V/I870V/INS558VACMSIMALLLL/INS573QVRWKII/INS599GNSYTFIDPTQLP/INS709AMLGPSLSPGQDPEGGVDYKNIHLEKKYVRRDSGFSSQGVDTYVEMRPVSTSSNDSFSEQDLD/K569Q/K650T/K800Q/K826H/K871Q/L602E/L684H/L690V/L783G/L815V/L840M/L863I/M626V/M665I/N627E/N784R/N900K/P896L/Q570K/Q641K/R572K/R624K/R708A/R848K/S619A/S634G/S639V/S653A/S685G/S706R/S809N/S841N/S844N/T636E/T667S/T787E/V561L/V616T/V638A/V785P/V811I/V822L/V828A/V846I/V889L/Y631F/Y689L/Y703F/Y796S)
T1 construct: consisting of the murine extracellular domain of the Flt3 receptor fused to the transmembrane and intracellular domains of the human Fms; expressed in transfected cells; host or cells: NIH 3T3 (mFlt3/Fms 3T3 cell line, provided by Dr. Ihor Lemischka)
T1 sequence (Q00342+P07333 with tags, fused parts or gaps Q00342:DEL545-556/Q00342:INS558VACMSIMALLLL/Q00342:I560L/Q00342:V561L/Q00342:I563L/Q00342:C564L/Q00342:H565Y/Q00342:K569Q/Q00342:Q570K/Q00342:F571P/Q00342:R572K/Q00342:INS573QVRWKII/Q00342:DEL576-597/Q00342:INS599GNSYTFIDPTQLP/Q00342:D601N/Q00342:L602E/Q00342:E609N/Q00342:E612Q/Q00342:V616T/Q00342:S619A/Q00342:R624K/Q00342:M626V/Q00342:N627E/Q00342:Y631F/Q00342:I633L/Q00342:S634G/Q00342:T636E/Q00342:G637D/Q00342:V638A/Q00342:S639V/Q00342:I640L/Q00342:Q641K/Q00342:E649S/Q00342:K650T/Q00342:D652H/Q00342:S653A/Q00342:C654D/Q00342:M665I/Q00342:T667S/Q00342:H671Q/Q00342:D673E/Q00342:L684H/Q00342:S685G/Q00342:Y689L/Q00342:L690V/Q00342:F692T/Q00342:Y703F/Q00342:S706R/Q00342:R708A/Q00342:INS709AMLGPSLSPGQDPEGGVDYKNIHLEKKYVRRDSGFSSQGVDTYVEMRPVSTSSNDSFSEQDLD/Q00342:DEL711-780/Q00342:L783G/Q00342:N784R/Q00342:V785P/Q00342:T787E/Q00342:F788L/Q00342:E789R/Q00342:C793H/Q00342:A795S/Q00342:Y796S/Q00342:K800Q/Q00342:E803A/Q00342:E806A/Q00342:F807S/Q00342:S809N/Q00342:V811I/Q00342:L815V/Q00342:V822L/Q00342:H824N/Q00342:K826H/Q00342:V828A/Q00342:C831G/Q00342:L840M/Q00342:S841N/Q00342:S844N/Q00342:V846I/Q00342:R848K/Q00342:L863I/Q00342:E865D/Q00342:G866C/Q00342:I867V/Q00342:I870V/Q00342:K871Q/Q00342:V889L/Q00342:P896L/Q00342:D898N/Q00342:A899S/Q00342:N900K): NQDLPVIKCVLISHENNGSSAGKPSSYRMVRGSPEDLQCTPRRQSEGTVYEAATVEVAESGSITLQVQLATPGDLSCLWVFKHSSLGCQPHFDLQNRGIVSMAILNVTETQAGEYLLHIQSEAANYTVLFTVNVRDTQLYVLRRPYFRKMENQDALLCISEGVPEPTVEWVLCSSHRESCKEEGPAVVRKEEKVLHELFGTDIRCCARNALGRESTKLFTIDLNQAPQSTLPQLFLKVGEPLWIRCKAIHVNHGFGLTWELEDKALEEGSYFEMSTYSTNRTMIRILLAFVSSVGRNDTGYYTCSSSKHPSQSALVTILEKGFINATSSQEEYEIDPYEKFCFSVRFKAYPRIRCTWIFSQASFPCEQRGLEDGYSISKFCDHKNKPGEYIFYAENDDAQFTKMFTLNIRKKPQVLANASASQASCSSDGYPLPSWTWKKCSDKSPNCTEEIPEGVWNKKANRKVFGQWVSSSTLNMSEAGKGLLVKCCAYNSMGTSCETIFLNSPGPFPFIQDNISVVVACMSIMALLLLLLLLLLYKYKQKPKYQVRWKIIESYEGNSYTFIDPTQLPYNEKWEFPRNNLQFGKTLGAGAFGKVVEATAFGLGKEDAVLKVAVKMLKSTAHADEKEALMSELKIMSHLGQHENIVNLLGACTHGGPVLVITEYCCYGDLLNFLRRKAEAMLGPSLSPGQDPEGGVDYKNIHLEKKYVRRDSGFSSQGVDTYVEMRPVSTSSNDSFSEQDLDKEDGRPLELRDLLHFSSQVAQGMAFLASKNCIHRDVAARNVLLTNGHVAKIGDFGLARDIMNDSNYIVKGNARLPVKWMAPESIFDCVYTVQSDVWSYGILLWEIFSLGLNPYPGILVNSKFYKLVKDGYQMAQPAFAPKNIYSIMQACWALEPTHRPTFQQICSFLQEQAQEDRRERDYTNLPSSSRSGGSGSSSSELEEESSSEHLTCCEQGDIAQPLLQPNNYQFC
Assay: mFlt3/Fms 3T3 biological screening assay (XTT)
Format: cell-based
From the text: A biological screening assay to search for novel stimulators of the Flt3 receptor was developed using NIH 3T3 cells transfected with expression vectors containing cDNA of murine and human Flt3 and the related Fms receptor. The mFlt3/Fms 3T3 cell line is a 3T3 cell line transfected with nucleic acid encoding a fusion protein consisting of the murine extracellular domain of the Flt3 receptor fused to the transmembrane and intracellular domains of the human Fms (provided by Dr. Ihor Lemischka, Princeton University, Princeton, N.J.). The Stk 3T3 cell line is a 3T3 cell line transfected with the full-length human Flt3 receptor (provided by Dr. Donald Small, Johns Hopkins University, Baltimore, Md.). The human FMS 3T3 cell line is a 3T3 cell line transfected with the full-length human Fms receptor (provided by Dr. Charles Sherr, Saint Jude Children's Research Hospital, Memphis, Tenn. Parent 3T3 cells were purchased from American Type Culture Collection (“ATCC”; Manassas, Va.). Receptor-transfected cells contained Neo resistance genes and were maintained in medium containing 750 µg/ml of G418 (Life Technologies, Rockville, Md.).
To create factor-dependence for receptor-transfected 3T3 cells, growth conditions were compromised to permit only ligands to rescue cells from death. To do this, 3T3 cell lines were assayed in 96 well plates (Becton Dickinson Labware, Lincoln Park, N.J.) containing 3,000 cells in 100 μL of serum-free medium consisting of 10% AIMV (Life Technologies) and 90% DMEM. In each experiment, samples were serially diluted two-fold across rows starting at a 1:10 dilution. Viable cells were quantitated after 3-5 days by XTT (2,3-bis[Methoxy-4-nitro-5sulfophenyl]-2H-tetrazolium-5 carboxanilide inner salt) (Sigma, St. Louis, Mo.) (Roehm et al., supra). Relative activity (units/ml) and specific activity (units/mg) are defined as the reciprocal dilution at which half-maximal stimulation of cells was detected.

B1: Pv-FRIL: FRIL family mannose-binding lectin from Phaseolus vulgaris (red kidney bean), SEQ ID NO: 6 (protein)
chain: AQSLSFNFTKFDLDQKDLIFQGDATSTNNVLQLTKLDSGGNPVGASVGRVLFSAPFHLWENSMAVSSFETNLTIQISTPHPYYAADGFAFFLAPHDTVIPPNSWGKFLGLYSNVFRNSPTSENQSFGDVNTDSRVVAVEFDTFPNANIDPNYRHIGIDVNSIKSKETARWEWQNGKTATARISYNSASKKSTVTTFYPGMEVVALSHDVDLHAELPEWVRVGLSASTGEEKQKNTIISWSFTSSLKNNEVKEPKEDMYIANVVRSYTWINDVLSYISNKMYDALNNNHKYVRCSTCMLFMKKK
  response of mFlt3/Fms 3T3 cells: responded in a dose dependent manner
Presence of rhIL1
  response of mFlt3/Fms 3T3 cells: respond to FRIL in the presence of rhIL1

Source: patent publication US6991794B1, “Progenitor cell preservation factors and methods for and products of their use” (ImClone Systems Incorporated, priority 1997, dated 2006)
